Measurements from patent publication US20240132593A1 (KINETA, published 2024).

Legend:
Antibody No. 245.1 [1] = assay: peptide blocking ELISA on plate-bound VISTA, peptide 2 ug/mL
Experimental: (§1) ELISA was used to measure the ability of sequential overlapping 15-mer synthetic peptides from human VISTA to block binding of an antibody to full length VISTA-ECD immobilized on a microtiter plate. Nickel coated ELISA plates were blocked with BSA and bound with 0.5 μg/mL VISTA protein (Human recombinant, produced in HEK 293 cells, SinoBiologics) for 1 h at room temperature. Anti-VISTA antibodies were diluted to 2-fold their EC₅₀ concentrations and pre-incubated at a 1:1 ratio with either 2 μg/mL or 20 μg/mL peptide solution in 0.5% BSA in PBST for 30 min at room temperature. Peptide-bound antibody solutions (50 μL) were added to each microtiter well and incubated for 1 h at room temperature, after which the ELISA plate was washed and processed as described above for standard ELISAs. Data are expressed as a percent reduction in ELISA signal obtained without preincubation with peptide solution.

Antibody No. 465.1 [2] = biological target: T1, Antibody No. 465.1; assay: as above
T1 construct: also called Ab No. 465.1
Experimental: as §1

VSTB174 [3] = assay: as above
Experimental: as §1

Antibody No. 245.1 [4] = assay: peptide blocking ELISA on plate-bound VISTA, peptide 20 ug/mL
Experimental: as §1

Antibody No. 465.1 [5] = biological target: T1, Antibody No. 465.1; assay: as above
Experimental: as §1

VSTB174 [6] = assay: as above
Experimental: as §1

VSTB174, sequence (VH, as listed by the source, chain 1 of 2): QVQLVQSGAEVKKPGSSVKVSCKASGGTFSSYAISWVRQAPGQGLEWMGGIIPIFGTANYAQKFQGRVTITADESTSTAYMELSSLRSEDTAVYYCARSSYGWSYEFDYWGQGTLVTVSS
VSTB174, sequence (VL, as listed by the source, chain 2 of 2): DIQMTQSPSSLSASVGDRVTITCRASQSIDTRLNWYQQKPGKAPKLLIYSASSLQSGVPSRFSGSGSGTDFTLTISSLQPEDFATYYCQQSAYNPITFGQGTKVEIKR

Binder	percent reduction in ELISA signal (Antibody No. 245.1 [1]) [%]	percent reduction in ELISA signal (Antibody No. 465.1 [2]) [%]	percent reduction in ELISA signal (VSTB174 [3]) [%]	percent reduction in ELISA signal (Antibody No. 245.1 [4]) [%]	percent reduction in ELISA signal (Antibody No. 465.1 [5]) [%]	percent reduction in ELISA signal (VSTB174 [6]) [%]
HLHHGGHQAANTSHD (synthetic overlapping peptide from human VISTA) [Spiked Peptide 14 (HLHHGGHQAANTSHD)]	1	11	20	66	43	79
VVEIRHHHSEHRVHG (synthetic overlapping peptide from human VISTA) [Spiked Peptide 24 (VVEIRHHHSEHRVHG)]	8	16	48	41	43	82
LYCCLVVEIRHHHSE (synthetic overlapping peptide from human VISTA) [Spiked Peptide 23 (LYCCLVVEIRHHHSE)]	9	2	31	37	36	67
FYKTWYRSSRGEVQT (synthetic overlapping peptide from human VISTA) [Spiked Peptide 8 (FYKTWYRSSRGEVQT)]	8	0	22	1	0	34
NTSHDLAQRHGLESA (synthetic overlapping peptide from human VISTA) [Spiked Peptide 16 (NTSHDLAQRHGLESA)]	0	0	10	14	0	28
YRSSRGEVQTCSERR (synthetic overlapping peptide from human VISTA) [Spiked Peptide 9 (YRSSRGEVQTCSERR)]	4	3	0	0	10	0
GHDVTFYKTWYRSSR (synthetic overlapping peptide from human VISTA) [Spiked Peptide 7 (GHDVTFYKTWYRSSR)]	12	0	8	26	26	30
DAPSNCVVYPSSSQE (synthetic overlapping peptide from human VISTA) [Spiked Peptide 29 (DAPSNCVVYPSSSQE)]	0	0	8	0	14	10
QNVTLTCRLLGPVDK (synthetic overlapping peptide from human VISTA) [Spiked Peptide 4 (QNVTLTCRLLGPVDK)]	9	0	5	25	16	32
TCRLLGPVDKGHDVT (synthetic overlapping peptide from human VISTA) [Spiked Peptide 5 (TCRLLGPVDKGHDVT)]	7	0	14	9	12	14
SDHHGNFSITMRNLT (synthetic overlapping peptide from human VISTA) [Spiked Peptide 19 (SDHHGNFSITMRNLT)]	0	3	10	9	4	28
HRVHGAMELQVQTGK (synthetic overlapping peptide from human VISTA) [Spiked Peptide 26 (HRVHGAMELQVQTGK)]	0	0	17	0	2	25
GEVQTCSERRPIRNL (synthetic overlapping peptide from human VISTA) [Spiked Peptide 10 (GEVQTCSERRPIRNL)]	0	0	2	0	4	0
GPVDKGHDVTFYKTW (synthetic overlapping peptide from human VISTA) [Spiked Peptide 6 (GPVDKGHDVTFYKTW)]	3	0	10	9	4	25
TFQDLHLHHGGHQAA (synthetic overlapping peptide from human VISTA) [Spiked Peptide 13 (TFQDLHLHHGGHQAA)]	3	15	26	57	36	81
LAQRHGLESASDHHG (synthetic overlapping peptide from human VISTA) [Spiked Peptide 17 (LAQRHGLESASDHHG)]	13	8	21	26	7	46
PIRNLTFQDLHLHHG (synthetic overlapping peptide from human VISTA) [Spiked Peptide 12 (PIRNLTFQDLHLHHG)]	20	9	52	62	55	89
PYSLYVCPEGQNVTL (synthetic overlapping peptide from human VISTA) [Spiked Peptide 2 (PYSLYVCPEGQNVTL)]	1	0	8	9	1	3
FKVATPYSLYVCPEG (synthetic overlapping peptide from human VISTA) [Spiked Peptide 1 (FKVATPYSLYVCPEG)]	2	5	1	0	7	18
LLDSGLYCCLVVEIR (synthetic overlapping peptide from human VISTA) [Spiked Peptide 22 (LLDSGLYCCLVVEIR)]	0	0	18	34	41	75
HHHSEHRVHGAMELQ (synthetic overlapping peptide from human VISTA) [Spiked Peptide 25 (HHHSEHRVHGAMELQ)]	10	10	45	52	67	83
VQTGKDAPSNCVVYP (synthetic overlapping peptide from human VISTA) [Spiked Peptide 28 (VQTGKDAPSNCVVYP)]	0	0	0	5	0	5
CSERRPIRNLTFQDL (synthetic overlapping peptide from human VISTA) [Spiked Peptide 11 (CSERRPIRNLTFQDL)]	4	0	10	6	8	14
MRNLTLLDSGLYCCL (synthetic overlapping peptide from human VISTA) [Spiked Peptide 21 (MRNLTLLDSGLYCCL)]	10	0	15	4	22	38
GLESASDHHGNFSIT (synthetic overlapping peptide from human VISTA) [Spiked Peptide 18 (GLESASDHHGNFSIT)]	3	0	17	3	4	32
NFSITMRNLTLLDSG (synthetic overlapping peptide from human VISTA) [Spiked Peptide 20 (NFSITMRNLTLLDSG)]	23	0	20	28	24	42
AMELQVQTGKDAPSN (synthetic overlapping peptide from human VISTA) [Spiked Peptide 27 (AMELQVQTGKDAPSN)]	0	0	13	0	3	24
GHQAANTSHDLAQRH (synthetic overlapping peptide from human VISTA) [Spiked Peptide 15 (GHQAANTSHDLAQRH)]	11	0	9	0	3	35
VCPEGQNVTLTCRLL (synthetic overlapping peptide from human VISTA) [Spiked Peptide 3 (VCPEGQNVTLTCRLL)]	0	2	0	3	7	37
